B1: Bap31_vDED (residues 168−233 + SAAA) (domain or fragment, human)
chain: LDVGNAEVKLEEENRSLKADLQKLKDELASTKQKLEKAENQVLAMRKQSEGLTKEYDRLLEEHAKLSAAA
notes: B-cell receptor-associated protein 31 (Bap31), human, variant of the death effector domain, residues 168-233; also called Bap31_vDED+SAAA; Bap31_168-233+SAAA; source: E. coli Rosetta2(DE3), purified (Ni-NTA, SEC)
B2: Bap31 coiled-coil 2 (Bap31_CC2, residues 168−246) (domain or fragment, human, UniProt P51572 168-246, looked up)
chain: LDVGNAEVKLEEENRSLKADLQKLKDELASTKQKLEKAENQVLAMRKQSEGLTKEYDRLLEEHAKLQAAVDGPMDKKEE
notes: B-cell receptor-associated protein 31 (Bap31), human, coiled-coil 2, residues 168-246; source: E. coli Rosetta2(DE3), purified (Ni-NTA, SEC)
B3: Bap31 coiled-coil 2 (Bap31_CC2, residues 168−246) WT (domain or fragment, human, UniProt P51572 168-246, looked up)
chain: B2 chain
notes: B-cell receptor-associated protein 31 (Bap31), human, coiled-coil 2, residues 168-246; also called Bap31_CC2 WT; Bap31_WT; source: E. coli Rosetta2(DE3), purified (Ni-NTA, SEC)

How the values were obtained:
[1] = molecular target: the molecule itself; test: AUC; sedimentation velocity, 42,000 rpm, 20 °C, 20 mM Tris-HCl pH 7.5, 150 mM NaCl, 0.5 mM TCEP; c(s) distribution (SEDFIT); oligomeric state of the protein alone
[2] = molecular target: T1, cytosolic domain of human Fis1 (Fis1_ΔTM, residues 1−123) (human, UniProt Q9Y3D6 1-123); test: SPR; Fis1_ΔTM WT or mutants immobilised by amine coupling; Bap31 constructs flowed at 30 μl/min; 25 °C; 20 mM HEPES pH 7.5, 100 mM NaCl, 0.005% Tween 20; BSA reference subtracted; equilibrium analysis; settings: both partners purified
T1 construct: mitochondrial fission protein 1 (Fis1), human, cytosolic domain with the C-terminal TM region truncated, residues 1-123; pQlinkH vector: N-terminal polyhistidine tag followed by a TEV site; also called Fis1_ΔTM WT; Fis1_WT; source: E. coli Rosetta2(DE3), purified (Ni-NTA, SEC)
T1 sequence (Q9Y3D6 1-123, stated change not applied): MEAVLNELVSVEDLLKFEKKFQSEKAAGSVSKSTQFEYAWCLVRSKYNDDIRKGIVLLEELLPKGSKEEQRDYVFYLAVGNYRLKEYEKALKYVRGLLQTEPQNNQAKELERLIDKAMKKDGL

Binder | stoichiometry N [1] | Kd [2]
B1 | ~2 | –
B2 | ~2 | –
B3 | – | 58 µM

From paper PMC12328794 (Communications Biology, 2025)
